Results: publication PMC11480506

Legend:
[1] = target: mCherry-IRE1α LD 352LNYL355-GSGS-10His (human) (UniProt O75460); assay: mass photometry; protein tethered by C-terminal 10His to supported lipid bilayers (99 mol% POPC, 1 mol% Ni-NTA lipids); 75 nM protein; 25 mM HEPES pH 7.3, 150 mM NaCl, 250 µM TCEP
[2] = target: mCherry-IRE1α LD 352LNYL355-GSGS-10His (human) (UniProt O75460); assay: mass photometry; protein tethered by C-terminal 10His to supported lipid bilayers (99 mol% POPC, 1 mol% Ni-NTA lipids); 100 nM protein; 25 mM HEPES pH 7.3, 150 mM NaCl, 250 µM TCEP
[3] = target: IRE1α LD 352LNYL355-GSGS mutant (human) (UniProt O75460); assay: AUC; sedimentation velocity (AUC-SV), 25 µM protein
[4] = target: mCherry-IRE1α LD-10His (human) (UniProt O75460); assay: mass photometry; protein tethered by C-terminal 10His to supported lipid bilayers (99 mol% POPC, 1 mol% Ni-NTA lipids); 75 nM protein; 25 mM HEPES pH 7.3, 150 mM NaCl, 250 µM TCEP
[5] = target: mCherry-IRE1α LD-10His (human) (UniProt O75460); assay: mass photometry; protein tethered by C-terminal 10His to supported lipid bilayers (99 mol% POPC, 1 mol% Ni-NTA lipids); 100 nM protein; 25 mM HEPES pH 7.3, 150 mM NaCl, 250 µM TCEP
[6] = target: mCherry-IRE1α LD 312TLPL315-GSGS-10His (human) (UniProt O75460); assay: mass photometry; protein tethered by C-terminal 10His to supported lipid bilayers (99 mol% POPC, 1 mol% Ni-NTA lipids); 75 nM protein; 25 mM HEPES pH 7.3, 150 mM NaCl, 250 µM TCEP
[7] = target: mCherry-IRE1α LD 312TLPL315-GSGS-10His (human) (UniProt O75460); assay: mass photometry; protein tethered by C-terminal 10His to supported lipid bilayers (99 mol% POPC, 1 mol% Ni-NTA lipids); 100 nM protein; 25 mM HEPES pH 7.3, 150 mM NaCl, 250 µM TCEP
[8] = target: human IRE1α lumenal domain (IRE1α LD, aa 24-443) (human) (UniProt O75460); assay: fluorescence polarisation; fluorescence anisotropy of N-terminal fluorescein labeled peptide with IRE1α LD; n = 2 independent experiments
[9] = target: IRE1α LD 312TLPL315-GSGS mutant (human) (UniProt O75460); assay: AUC; sedimentation velocity (AUC-SV), 25 µM protein

Sequence of UniProt O75460 (O75460 24-443): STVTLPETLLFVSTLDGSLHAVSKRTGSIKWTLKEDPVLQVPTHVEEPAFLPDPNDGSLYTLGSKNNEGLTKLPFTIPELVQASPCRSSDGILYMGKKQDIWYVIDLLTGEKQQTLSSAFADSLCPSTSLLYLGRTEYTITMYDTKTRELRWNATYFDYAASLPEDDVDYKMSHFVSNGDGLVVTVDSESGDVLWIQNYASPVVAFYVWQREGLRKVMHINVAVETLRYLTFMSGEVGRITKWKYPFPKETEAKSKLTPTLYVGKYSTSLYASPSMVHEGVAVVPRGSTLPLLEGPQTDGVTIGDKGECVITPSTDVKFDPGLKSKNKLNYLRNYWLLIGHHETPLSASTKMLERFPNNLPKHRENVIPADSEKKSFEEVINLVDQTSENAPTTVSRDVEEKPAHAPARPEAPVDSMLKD

In the case of “mCherry-IRE1α LD 352LNYL355-GSGS-10His (from UniProt O75460 24-443) (domain or fragment)”, the stoichiometry N [1] is reported as 2 and the stoichiometry N [2] is reported as 2.
“IRE1α LD 352LNYL355-GSGS mutant (from UniProt O75460 24-443) (domain or fragment)” gave a stoichiometry N [3] of 2.
Substance “mCherry-IRE1α LD-10His (from UniProt O75460 24-443) (domain or fragment)” has a stoichiometry N [4] of 2 and a stoichiometry N [5] of 2.
Substance “mCherry-IRE1α LD 312TLPL315-GSGS-10His (from UniProt O75460 24-443) (domain or fragment)” has a stoichiometry N [6] of 2 and a stoichiometry N [7] of 2.
Substance “MPZ1N-2X, model unfolded polypeptide (two MPZ1N 12mers in tandem), N-terminal fluorescein labeled” has a Kd [8] of 2 µM.
For “IRE1α LD 312TLPL315-GSGS mutant (from UniProt O75460 24-443) (domain or fragment)”, the stoichiometry N [9] was 2.
